From the nanobody polyreactivity screen of Harvey et al. (2022)

Test: yeast display, Sf9 membrane polyspecificity reagent, FACS + sequencing; frameworks hold sequencing errors
Procedure, shortened: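 Nanobodies came from a synthetic yeast display library in Saccharomyces cerevisiae BJ5465, induced with galactose for 36–48 hours and stained for 1 hour at 4 °C with 10% biotinylated, detergent-solubilized Sf9 membrane reagent. Cells were enriched on streptavidin microbeads and then FACS-sorted, with low and high (top ~1%) gates set on anti-HA fluorescence for expression and streptavidin fluorescence for reagent binding. Each polyreactivity label reflects the gate a clone came from. Genes were amplified by colony PCR, sequenced by MiSeq 2 × 250 and filtered by CDR length.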

QVQLVESGGGLVQAGGSLRLSCAASGIIFYYYAMGWYRQAPGKESELVADITYSGGSTYYADSVKGRFTISRDKAKNTVYLQMNSLKPEDTAVYYCAARVTVSHWPYYYDSSDYGGQGTQVTVSS
polyreactivity (PSR sort gate): low polyreactivity

QVQLVESGGGLVQAGGSLRLSCAASGIIFYYYTMGWYRQAPGKETELVASITWSGGGSTYYADSVKGRFTISRDNAKNTVYLQMNSLKPEDTAVYYCNADEYYSYDYWGQGTQVTVSS
polyreactivity (PSR sort gate): low polyreactivity

QVQLVESGGGLVQAGGSLRLSCAASGIIFYYYVLGWYRQAPGKERELVAAISARGGSTTYADSVKGRFTISRDNAKNTVYLQMISLKPEDTAVYYCAADVSYWRHGYQLSYDYWGQVTQVTVSS
polyreactivity (PSR sort gate): high polyreactivity

QVQLVESGGGLVQAGGSLRLSCAASGIIIAYYAMGWYRQAPGKERVLVATISSGGRTKYADSVKGRFTISRDNAKNTVYLQMNSLKPEDTAVYYCNTDRYFRRYYWYDYWGQGTQVTVSS
polyreactivity (PSR sort gate): high polyreactivity

QVQLVESGGGLVQAGGSLRLSCAASGIIIDNYTMGWYRQAPGKEREFVAAINKSGGSTYADSVKGRFTISRDNAKNTVYLQMNSLKPEDTAVYYCAAEVDYSYWPEYARKYYYWGQGTQVTVSS
polyreactivity (PSR sort gate): low polyreactivity

QVQLVESGGGLVQAGGSLRLSCAASGIIIDRYAMGWYRQAPGKERELVAAISWSGGRTYYADSVKGRFTISRDNAKNTVYLQMNSLKPEDTAVYYCAAKPSVDLDYWGQGTQVTVSS
polyreactivity (PSR sort gate): high polyreactivity

QVQLVESGGGLVQAGGSLRLSCAASGIIIRYYGMGWYRQAPGKERELVARIRWTGGSTYYADSVKGRFTISRDNAKNTVYLQMNSLKPEDTAVYYCAAAWWSYKFNRDFDYWGQGTQVTVSS
polyreactivity (PSR sort gate): low polyreactivity

QVQLVESGGGLVQAGGSLRLSCAASGIIISINAMGWYRQAPGKERELVAAISRSGGSTNYADSVKGRFTISRDNAKNTVYLQMNSLKPVDTAVDYCATVHRYSVWSHNYWGQGTQVTVSS
polyreactivity (PSR sort gate): high polyreactivity

QVQLVESGGGLVQAGGSLRLSCAASGIIISYYAMGWYRQAPGTERELVAAINWNGDSTHYADSVKGRFTISRDNAKNTVYLKMNSLKPEDTAVYYCAAGYTPDTRCHYGTHDMDYWGQGTQVTVSS
polyreactivity (PSR sort gate): low polyreactivity

QVQLVESGGGLVQAGGSLRLSCAASGIIIYKYAMGWDRQAPGTERELVAAITSGGGRTYYADSVKGRFTISRDNAKNTVYLQMNSLKPEDTAVYYCAATRPATYAAYDYWGQGTQVTVSS
polyreactivity (PSR sort gate): high polyreactivity

QVQLVESGGGLVQAGGSLRLSCAASGIILAGYGMGWYRQAPGKERELVAAINGCGGSTYYADSVKGRFTISRDNAKNTVYLQMNSLKPEDTAVYYCATDWWSGLYYYWGQGTQVTVSS
polyreactivity (PSR sort gate): high polyreactivity

QVQLVESGGGLVQAGGSLRLSCAASGIILDPNAMGWSRQAPGKERELVAGITRSGVSTYYAESVKGRFTISRDNAKNTVYLKMNSLKPEDTAVYYCAKDRISGSKGEDDDYWGKGTQVTVSS
polyreactivity (PSR sort gate): low polyreactivity

QVQLVESGGGLVQAGGSLRLSCAASGIILDRNAMGWYRQAPGKERELVAAINSIGGSTYYADSVKGRFTISRDTAKNTVYLQMNSLKPEDTAVYYCNVAQRYYGNFFSSRYEYWGQGTQVTVSS
polyreactivity (PSR sort gate): low polyreactivity

QVQLVESGGGLVQAGGSLRLSCAASGIILGLNVMGWYRQAPGKERELVATITRRGGSTFYADSVKGRFTISRDNAKNTVYLQMNSLKPEDTAVYYCNAEQWIWHHLTVQGFDYWGQGTQVTVSS
polyreactivity (PSR sort gate): high polyreactivity

QVQLVESGGGLVQAGGSLRLSCAASGIILPRYAMGWYRQAPGKERELVAAISRGGGTYYADSVKGRFTISRDNAKNTVYLQMNSLIPEDTAVYYCAAAYVFVGSSHYYWGQGTQVTVSS
polyreactivity (PSR sort gate): high polyreactivity

QVQLVESGGGLVQAGGSLRLSCAASGIILPYYVMGLYRQAPGKERELVAAISSGGRTYYADSVKGRFTISRDNAKNTVYLQMNSLKPEDTAVYYCNAYFTGKWYDYWGQGTQVTVSS
polyreactivity (PSR sort gate): high polyreactivity

QVQLVESGGGLVQAGGSLRLSCAASGIILRYYAMGWYRQAPGKERELVAAITRGGSTNYADSVKGRFTISRDNAKNTVYLQMNSLKPEVTAVYYCAADVVFWFSNVAWRDFGYWGQGTQVTVSS
polyreactivity (PSR sort gate): low polyreactivity

QVQLVESGGGLVQAGGSLRLSCAASGIILSGYAMGWYRQAPGKDRELVAAIRRGGSTYYADSVKGRFTISRDNAKNTVYLQMNSLKPEDTAVYYCNAYSSRKVKWWDDYWGQGTQVTVSS
polyreactivity (PSR sort gate): high polyreactivity

QVQLVESGGGLVQAGGSLRLSCAASGIILSYYVMGGYRQAPGNATELVAAISLRGGTTYYADSVKGRFTISRDNANTTVYIQMNSLKPEDTAVYYCAAQRPGFGYEYDYWGQGTQVTVSS
polyreactivity (PSR sort gate): high polyreactivity

QVQLVESGGGLVQAGGSLRLSCAASGIILVRNAMGWYRQAPGKERELVAAISKSGGRTYYADSVKGRFTISRDNAKNTVYLQMNSLKPEDTAVYYCNVLTYHDFDYWGQGSQVTVSS
polyreactivity (PSR sort gate): high polyreactivity

QVQLVESGGGLVQAGGSLRLSCAASGIILYGYSMGWYRQAPGKERELVAAISWDGGSTYYADSVKGRFTISRDNAKNTVYLQMISLIPEDTAVYYCNALGGSEYDYWGQGTQVTVSS
polyreactivity (PSR sort gate): low polyreactivity

QVQLVESGGGLVQAGGSLRLSCAASGIILYPNAMVWYRQAPGKERELVAGITRSGVSTYYADSVKGRFTISRDNAKNTVYLQMNSLNPEDTAVYYCAKDRIYGSKGEDDDYWGQGTQVTVSS
polyreactivity (PSR sort gate): low polyreactivity

QVQLVESGGGLVQAGGSLRLSCAASGIILYRNVLGWYRQAPGKERELVASINRGSDSTYYADSVKGRFTISRDNEKNTVYLHMNSLKPEDTAVYYCAAVYVYGVEMDYWGQGTQVTVSS
polyreactivity (PSR sort gate): low polyreactivity

QVQLVESGGGLVQAGGSLRLSCAASGIILYRYAMGWYRQAPGKERELVAAISRRGGSTYYADSVKGRFTISRDNAKNTVYLQMNSLKPEDTAVYYCATRSTFYSRWGEVYTYYYWGQGTQVTVSS
polyreactivity (PSR sort gate): high polyreactivity

QVQLVESGGGLVQAGGSLRLSCAASGIISPFYAMGWYRPAPGNERELVADISTGGTTTYADSVKGRFTISRDNAKNTVYLKMNSLKPEDTAVYYCNAEVSLTYYWIVWASYDYWGQGTQVTVSS
polyreactivity (PSR sort gate): low polyreactivity

QVQLVESGGGLVQAGGSLRLSCAASGIISRVYAMGWYRQAPGKERELVAAITRRGSTTYYADSVKGRFTISRDNAKNTVYLQMNSLKPEDTAVYYCAALARYGPRYRGDYWGQGTQVTVSS
polyreactivity (PSR sort gate): high polyreactivity

QVQLVESGGGLVQAGGSLRLSCAASGIISYLYAMGWYRQAPGKERELVAVIRTSDAITYYADSVKGRFTISRDNAKNTVYLQMISLKPEDTAVYYCAAEDVYEYDYWGQGTQVTVSS
polyreactivity (PSR sort gate): high polyreactivity

QVQLVESGGGLVQAGGSLRLSCAASGIISYLYAMGWYRQAPGKERELVAVIRTSDAITYYADSVKGRFTISRDNAKNTVYLQMNSLKPEDTAVYYCAAEDVYEYDYWGQGTQVTVSS
polyreactivity (PSR sort gate): high polyreactivity

QVQLVESGGGLVQAGGSLRLSCAASGIISYLYAMGWYRQAPGKERELVAVIRTSDAITYYADSVKGRFTISRDNAKNTVYLQMNSLKPEDTAVYYCNRDRGSIYGWGQGTQVTVSS
polyreactivity (PSR sort gate): high polyreactivity

QVQLVESGGGLVQAGGSLRLSCAASGIIVPYNAMGWYRQEPGKVRYLVSAITSGGSTYYADSVKGRFTISRDNAKNTVYLQMNSMKPEDTAVYYCAKVPLSARRNNQSWAYDYWGQGTQVTVSS
polyreactivity (PSR sort gate): low polyreactivity

QVQLVESGGGLVQAGGSLRLSCAASGIIYAANPMGWYRQAPGKERELVAAISKNGGITYYADSVKGRFTISRDNAKNTVYLQMNSLKPEDTAVYYCAARWRQTRRYYYWGQGTQVTVSS
polyreactivity (PSR sort gate): high polyreactivity

QVQLVESGGGLVQAGGSLRLSCAASGIIYAYYAMGWYRQAPGKERELVAAISRSGGITYYADSVKGRFTISRDNAKNTVYLQMNSLKPEDTAVYYCARYSSRPYDYWGQGTQVTVSS
polyreactivity (PSR sort gate): high polyreactivity

QVQLVESGGGLVQAGGSLRLSCAASGILSLYTMGCSIQAPGKERELVAAISFRGGNTYYADSVKGRFTISRDNAKNTVYLQMNSLKPEDTAVYYCNAVTRPWRRGYDYWGQGTQVTVSS
polyreactivity (PSR sort gate): high polyreactivity

QVQLVESGGGLVQAGGSLRLSCAASGIMFFYYAMGWYRQAPGKERELVAAISNSDTSTSYADSVKGRFTISRDNAKNSVYFQMNSLKPEDTAVYYCNADSPSLSGDYWGQGTQVTVSS
polyreactivity (PSR sort gate): low polyreactivity

QVQLVESGGGLVQAGGSLRLSCAASGIMFTLYAMGWYRQAPGKERELVAAISGSGGSTYYAASVKGRFTISRDTAKKTVNLQMNSLKPEDTAVSYCRLAPRYRTGGYWGQGTQVTVSS
polyreactivity (PSR sort gate): high polyreactivity

QVQLVESGGGLVQAGGSLRLSCAASGINFGRNAMGWYSQAPGKERELVAAITRRGGRTNYADSVKGRFTISRDNAKNTVYLQMNSLKPEDNAVYYCNAHGRPAEAGYDYWGQATQVTVSS
polyreactivity (PSR sort gate): high polyreactivity

QVQLVESGGGLVQAGGSLRLSCAASGINFRQYTMGWFRQAPGKERELVAAITSSGRTYYADSVKGRFTISRDNAKNTVYLQMNSLKPEDTAVYYCAAKGTYRGHDYWGQGTQVTVSS
polyreactivity (PSR sort gate): high polyreactivity

QVQLVESGGGLVQAGGSLRLSCAASGINFRYYAMGWYRQAPGKERELVARISTRGGSTYYADSVKGRFTISRDNAKNTVYLQMNSLKPEDTAVYYCAAVNGLYYHKYGYYWGQGTQVTVSS
polyreactivity (PSR sort gate): high polyreactivity

QVQLVESGGGLVQAGGSLRLSCAASGINFRYYAMGWYRQATGKERELVADISSDGGTYYADSVKGRFKISRDNAQNTVYLQMNSLKPEDTAVYYCAADYQFYWHYYYWGQGTQVTVSS
polyreactivity (PSR sort gate): high polyreactivity

QVQLVESGGGLVQAGGSLRLSCAASGINFVRNAMGWYRQAPGKERELVAAITGRGVSTYYADSVKGRFTISRDNAKNTVYLQMKSLKPEDTAVYYCAARYSSRGTYPRRYDYWGQGTQVTVSS
polyreactivity (PSR sort gate): high polyreactivity

QVQLVESGGGLVQAGGSLRLSCAASGIPRNTMGWYRQAPGKERELVASISTSGGSTYYADSVKGRFTLSRDNANNTVYLQMNSLKPEDTAVYYCAKKGYASRYFIYDYWGQGTQVTVSS
polyreactivity (PSR sort gate): low polyreactivity

QVQLVESGGGLVQAGGSLRLSCAASGISFYEYGMGWYRQAPGKERELVAAITFGGGSTYYADSVKGRFTISRDNAKNTVYLQMNSLKPEDTAVYDCAADRVYWGRVQGYYWGQGTQVTVSS
polyreactivity (PSR sort gate): low polyreactivity

QVQLVESGGGLVQAGGSLRLSCAASGITFAGYTMGWYRQAPGKERELVAAISWRTGSTYYADSVKGRFTISRDTAKNTVYLQMNSLKPEDTAVYYCAARVPSPYVATYYYWGQGTQVTVSS
polyreactivity (PSR sort gate): high polyreactivity
